{"source": "IntAct's records for PubMed 19135897", "parents": {"B1": {"name": "Mitochondrial Rho GTPase 1 (Homo sapiens), Q8IXI2 (parent)", "chain": "MKKDVRILLVGEPRVGKTSLIMSLVSEEFPEEVPPRAEEITIPADVTPERVPTHIVDYSEAEQSDEQLHQEISQANVICIVYAVNNKHSIDKVTSRWIPLINERTDKDSRLPLILVGNKSDLVEYSSMETILPIMNQYTEIETCVECSAKNLKNISELFYYAQKAVLHPTGPLYCPEEKEMKPACIKALTRIFKISDQDNDGTLNDAELNFFQRICFNTPLAPQALEDVKNVVRKHISDGVADSGLTLKGFLFLHTLFIQRGRHETTWTVLRRFGYDDDLDLTPEYLFPLLKIPPDCTTELNHHAYLFLQSTFDKHDLDRDCALSPDELKDLFKVFPYIPWGPDVNNTVCTNERGWITYQGFLSQWTLTTYLDVQRCLEYLGYLGYSILTEQESQASAVTVTRDKKIDLQKKQTQRNVFRCNVIGVKNCGKSGVLQALLGRNLMRQKKIREDHKSYYAINTVYVYGQEKYLLLHDISESEFLTEAEIICDVVCLVYDVSNPKSFEYCARIFKQHFMDSRIPCLIVAAKSDLHEVKQEYSISPTDFCRKHKMPPPQAFTCNTADAPSKDIFVKLTTMAMYPHVTQADLKSSTFWLRASFGATVFAVLGFAMYKALLKQR"}, "B2": {"name": "Mitochondrial Rho GTPase (Drosophila melanogaster (Fruit fly)), Q8IMX7 (parent)", "chain": "MGQYTASQRKNVRILLVGDAGVGKTSLILSLVSEEYPEEVPPRAEEITIPANVTPEQVPTSIVDFSAVEQSEDALAAEINKAHVVCIVYAVDDDDTLDRITSHWLPLVRAKCNPSLDGEGDAEAEAEGDTQREPIRKPIVLVGNKIDLIEYSTMDSVLAIMEDYPEIESCVECSAKSLHNISEMFYYAQKAVLHPTSPLYMMEEQELTSACKKSLVRIFKICDIDGDNLLNDYELNLFQRRCFNTPLQPQILDEVKAVIQKNVPDGIYNDAVTLKGFLFLHCLFIQRGRNETTWAVLRRFGYNDQLEMCQEYLRPPLKIPPGSSTELSHRGQQFLIAVFERYDRDGDGALSPEEHKMLFSTCPAAPWSYSTDIRKSCPINETTGWVTLHGWLCRWTLMTLIDVVKTMEYLAYLGFNVHENDSQLAAIHVTRERRIDLAKRQSSRSVYKCHVIGPKGSGKTGMCRGFLVEDMHKLIGKEFKTNVVNCINSVQVYGQEKHLILRDIDVRHALDPLQPQEVNCDVACLVYDSSNPRSFEYVARIYIKYYAESKIPVMIVGTKCDMDERRQDYLMQPSEFCDKYKLLPPHLFSLKTNKKELYTKLATMAAFPHLRQFGLMTEDPKLWLKAGLGVAAATMLGFIVLKTISAAGAHTR"}}, "key": {"kif5c_rat Kif5c, P56536 [1]": {"variants_of": "B1", "settings": "with kif5c_rat Kif5c"}, "kif5c_rat Kif5c, P56536 [2]": {"variants_of": "B1", "settings": "with kif5c_rat Kif5c", "remark": "listed apart in the source"}, "[3]": {"variants_of": "B1", "settings": "with kif5c_human KIF5C"}, "kinh_rat Kif5b, Q2PQA9": {"variants_of": "B2", "settings": "with kinh_rat Kif5b"}}}
{"variant": "E208K;E328K", "values": [{"measurement": "effect of a mutation on the interaction", "setting": "kif5c_rat Kif5c, P56536 [1]", "result": "decreasing interaction"}, {"measurement": "effect of a mutation on the interaction", "setting": "kif5c_rat Kif5c, P56536 [2]", "result": "decreasing interaction"}, {"measurement": "effect of a mutation on the interaction", "setting": "[3]", "result": "decreasing interaction strength"}]}
{"variant": "E234K;D345K", "values": [{"measurement": "effect of a mutation on the interaction", "setting": "kinh_rat Kif5b, Q2PQA9", "result": "decreasing interaction"}]}
